# ± gives the uncertainty stated by the source.
# Experiment: self-splicing fitness, log relative to wild type (ln ratio); higher = more splicing; Tetrahymena group I intron in knt gene, E. coli kanamycin selection, DiMSum; sequences stand for … in CUCUCU…GGAGGGAAAAGUUAUCAGGCAUGCACCUGGUAGCUAGUCUUUAAACCAAUAGAUUGCAUCGGUUUAAAAGGCAAGACCGUCAAAUUGCGGGAAAGGGGUCAACAGCCGUUCAGUACCAAGUCUCAGGGGAAACUUUGAGAUGGCCUUGCAAAGGGUAUGGUAAUAAGCUGACGGACAUGGUCCUAACCACGCAGCCAAGUCCUAAGUCAACAGAUCUUCUGUUGAUAUGGAUGCAGUUCACAGACUAAAUGUCGGUCGGGGAAGAUGUAUUCUUCUCAUAAGAUAUAGUCGGACCUCUCCUUAAUGGGAGCUAGCGGAUGAAGUGAUGCAACACUGGAGCCGCUGGGAACUAAUUUGUAUGCGAAAGUAUAUUGAUUAGUUUUGGAGUACUCGUGGUCG
# Procedure, shortened: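 The eight P1ex-region nucleotides of an intron in the knt kanamycin-resistance gene on pET-22b(+) were all randomised and the library put into E. coli BL21(DE3). Six replicate transformations were grown overnight at 37°C or 30°C on LB agar with or without 25 μg/mL kanamycin, together with 100 μg/mL carbenicillin, 50 μM IPTG and 0.2% rhamnose. Colonies were pooled and amplicon-sequenced on an Illumina HiSeq 2500. Fitness from DiMSum is the error-weighted combination of wild-type-normalised replicate fold changes, kanamycin over none.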
sequence,measurement,setting,value
CUCCAGCAAUAUUACGUUCU,self-splicing fitness (ln),30 °C,-2.89 ± 0.15
same,self-splicing fitness (ln),37 °C,-3.65 ± 0.46
AUGAAGCAAUAUUACGGAUC,self-splicing fitness (ln),30 °C,-0.696 ± 0.09
same,self-splicing fitness (ln),37 °C,-0.0788 ± 0.099
CGCAAGCAAUAUUACGAAGG,self-splicing fitness (ln),30 °C,-1.28 ± 0.098
same,self-splicing fitness (ln),37 °C,-0.75 ± 0.15
GAAAAGCAAUAUUACGGAGU,self-splicing fitness (ln),30 °C,-3.18 ± 0.15
same,self-splicing fitness (ln),37 °C,-2.11 ± 0.15
CAGUAGCAAUAUUACGUGUG,self-splicing fitness (ln),30 °C,-1.64 ± 0.062
same,self-splicing fitness (ln),37 °C,-1.23 ± 0.085
UAAUAGCAAUAUUACGCGUA,self-splicing fitness (ln),30 °C,-1.85 ± 0.14
same,self-splicing fitness (ln),37 °C,-0.713 ± 0.12
AUUCAGCAAUAUUACGACUU,self-splicing fitness (ln),30 °C,-0.122 ± 0.1
same,self-splicing fitness (ln),37 °C,0.27 ± 0.11
CAUCAGCAAUAUUACGCCAA,self-splicing fitness (ln),30 °C,-1.99 ± 0.25
same,self-splicing fitness (ln),37 °C,-1.81 ± 0.24
UUACAGCAAUAUUACGAGGU,self-splicing fitness (ln),30 °C,-3.08 ± 0.22
same,self-splicing fitness (ln),37 °C,-2.72 ± 0.23
ACGGAGCAAUAUUACGUUCA,self-splicing fitness (ln),30 °C,-1.94 ± 0.18
same,self-splicing fitness (ln),37 °C,-0.749 ± 0.13
AGUUAGCAAUAUUACGACGG,self-splicing fitness (ln),30 °C,-0.829 ± 0.15
same,self-splicing fitness (ln),37 °C,-0.189 ± 0.18
CCUCAGCAAUAUUACGCAGG,self-splicing fitness (ln),30 °C,-3.84 ± 0.25
same,self-splicing fitness (ln),37 °C,-2.5 ± 0.3
GAACAGCAAUAUUACGUCCG,self-splicing fitness (ln),30 °C,-1.5 ± 0.13
same,self-splicing fitness (ln),37 °C,-0.784 ± 0.17
GACCAGCAAUAUUACGUUAA,self-splicing fitness (ln),30 °C,-1.13 ± 0.093
same,self-splicing fitness (ln),37 °C,-0.35 ± 0.1
UUAGAGCAAUAUUACGCACU,self-splicing fitness (ln),30 °C,-1.24 ± 0.23
same,self-splicing fitness (ln),37 °C,-1.78 ± 0.44
UGAAAGCAAUAUUACGUGCG,self-splicing fitness (ln),30 °C,-0.35 ± 0.065
same,self-splicing fitness (ln),37 °C,-0.395 ± 0.073
GACGAGCAAUAUUACGACAU,self-splicing fitness (ln),30 °C,-2.931 ± 0.021
same,self-splicing fitness (ln),37 °C,-1.99 ± 0.036
UUUUAGCAAUAUUACGGUAG,self-splicing fitness (ln),30 °C,-1.6 ± 0.18
same,self-splicing fitness (ln),37 °C,-1.74 ± 0.16
GGCAAGCAAUAUUACGUGGC,self-splicing fitness (ln),30 °C,-3.53 ± 0.34
same,self-splicing fitness (ln),37 °C,-1.28 ± 0.19
UCGCAGCAAUAUUACGUGUU,self-splicing fitness (ln),30 °C,-2.49 ± 0.092
same,self-splicing fitness (ln),37 °C,-1.67 ± 0.11
GUCAAGCAAUAUUACGCCGC,self-splicing fitness (ln),30 °C,-2.83 ± 0.28
same,self-splicing fitness (ln),37 °C,-2.35 ± 0.46
CCAGAGCAAUAUUACGUUUC,self-splicing fitness (ln),30 °C,-3.23 ± 0.22
same,self-splicing fitness (ln),37 °C,-3.61 ± 0.31
AUUAAGCAAUAUUACGCACA,self-splicing fitness (ln),30 °C,-0.525 ± 0.12
same,self-splicing fitness (ln),37 °C,-0.202 ± 0.13
GGUGAGCAAUAUUACGGUUC,self-splicing fitness (ln),30 °C,-1.21 ± 0.23
same,self-splicing fitness (ln),37 °C,-0.574 ± 0.4
GUAGAGCAAUAUUACGUAAC,self-splicing fitness (ln),30 °C,-0.96 ± 0.11
same,self-splicing fitness (ln),37 °C,-0.246 ± 0.14
CUCCAGCAAUAUUACGUGGG,self-splicing fitness (ln),30 °C,-3.29 ± 0.11
same,self-splicing fitness (ln),37 °C,-2.62 ± 0.14
UAUUAGCAAUAUUACGUAGG,self-splicing fitness (ln),30 °C,-1.57 ± 0.14
same,self-splicing fitness (ln),37 °C,-1.33 ± 0.23
UUCUAGCAAUAUUACGUGGG,self-splicing fitness (ln),30 °C,-3.08 ± 0.16
same,self-splicing fitness (ln),37 °C,-2.39 ± 0.15
AUUUAGCAAUAUUACGCCGC,self-splicing fitness (ln),30 °C,-1.8 ± 0.41
same,self-splicing fitness (ln),37 °C,-1.82 ± 0.48
GCACAGCAAUAUUACGACGA,self-splicing fitness (ln),30 °C,-0.897 ± 0.13
same,self-splicing fitness (ln),37 °C,0.243 ± 0.15
GUAGAGCAAUAUUACGAUAG,self-splicing fitness (ln),30 °C,-2.06 ± 0.15
same,self-splicing fitness (ln),37 °C,-1.42 ± 0.14
UUCAAGCAAUAUUACGACGA,self-splicing fitness (ln),30 °C,-0.243 ± 0.084
same,self-splicing fitness (ln),37 °C,0.213 ± 0.084
UGGAAGCAAUAUUACGCCUU,self-splicing fitness (ln),30 °C,-2.28 ± 0.31
UAUAAGCAAUAUUACGAUGG,self-splicing fitness (ln),30 °C,-1.62 ± 0.13
same,self-splicing fitness (ln),37 °C,-1.48 ± 0.2
UCGGAGCAAUAUUACGAUAG,self-splicing fitness (ln),30 °C,-3.29 ± 0.32
same,self-splicing fitness (ln),37 °C,-2.83 ± 0.35
UUUUAGCAAUAUUACGCGGC,self-splicing fitness (ln),37 °C,-2.34 ± 0.39
CGCUAGCAAUAUUACGGGAA,self-splicing fitness (ln),30 °C,-3.1 ± 0.22
same,self-splicing fitness (ln),37 °C,-2.76 ± 0.26
AGUGAGCAAUAUUACGACGC,self-splicing fitness (ln),30 °C,-1.01 ± 0.2
same,self-splicing fitness (ln),37 °C,-0.737 ± 0.29
ACACAGCAAUAUUACGCCGU,self-splicing fitness (ln),30 °C,-2.08 ± 0.13
same,self-splicing fitness (ln),37 °C,-1.13 ± 0.18
CGCCAGCAAUAUUACGCUUC,self-splicing fitness (ln),30 °C,-2.77 ± 0.26
same,self-splicing fitness (ln),37 °C,-3.27 ± 0.37
GAUUAGCAAUAUUACGGAAA,self-splicing fitness (ln),30 °C,-2.25 ± 0.29
same,self-splicing fitness (ln),37 °C,-2.19 ± 0.22
CCUGAGCAAUAUUACGCUAA,self-splicing fitness (ln),30 °C,-3.04 ± 0.2
same,self-splicing fitness (ln),37 °C,-2.88 ± 0.25
CGGAAGCAAUAUUACGCUGU,self-splicing fitness (ln),30 °C,-3.49 ± 0.15
same,self-splicing fitness (ln),37 °C,-1.3 ± 0.08
CCAGAGCAAUAUUACGUCAC,self-splicing fitness (ln),30 °C,-2.34 ± 0.3
GUGAAGCAAUAUUACGCUGC,self-splicing fitness (ln),30 °C,-3.05 ± 0.21
same,self-splicing fitness (ln),37 °C,-2.19 ± 0.21
AGCUAGCAAUAUUACGAUAA,self-splicing fitness (ln),30 °C,-2.14 ± 0.12
same,self-splicing fitness (ln),37 °C,-1.12 ± 0.14
GAAAAGCAAUAUUACGUGUG,self-splicing fitness (ln),30 °C,-2.31 ± 0.062
same,self-splicing fitness (ln),37 °C,-1.06 ± 0.072
GCGCAGCAAUAUUACGACAG,self-splicing fitness (ln),30 °C,-3.49 ± 0.17
same,self-splicing fitness (ln),37 °C,-3.05 ± 0.18
ACCCAGCAAUAUUACGGGAG,self-splicing fitness (ln),30 °C,-1.23 ± 0.059
same,self-splicing fitness (ln),37 °C,-1.05 ± 0.082
CCGAAGCAAUAUUACGUACC,self-splicing fitness (ln),30 °C,-3.47 ± 0.16
same,self-splicing fitness (ln),37 °C,-2.5 ± 0.21
AUAAAGCAAUAUUACGGGCU,self-splicing fitness (ln),30 °C,-0.992 ± 0.08
same,self-splicing fitness (ln),37 °C,-0.621 ± 0.1
UUGGAGCAAUAUUACGCAAG,self-splicing fitness (ln),30 °C,-1.51 ± 0.22
same,self-splicing fitness (ln),37 °C,-2.65 ± 0.44
CGCCAGCAAUAUUACGGGUU,self-splicing fitness (ln),30 °C,-2.64 ± 0.1
same,self-splicing fitness (ln),37 °C,-2.18 ± 0.12
AUAAAGCAAUAUUACGACAG,self-splicing fitness (ln),30 °C,-1.2 ± 0.1
same,self-splicing fitness (ln),37 °C,-1.15 ± 0.12
GGUAAGCAAUAUUACGAGAG,self-splicing fitness (ln),30 °C,-3.7 ± 0.4
same,self-splicing fitness (ln),37 °C,-3.25 ± 0.25
AGUUAGCAAUAUUACGAACA,self-splicing fitness (ln),30 °C,-0.687 ± 0.12
same,self-splicing fitness (ln),37 °C,0.168 ± 0.17
GGGUAGCAAUAUUACGCGAU,self-splicing fitness (ln),30 °C,-3.42 ± 0.26
same,self-splicing fitness (ln),37 °C,-1.93 ± 0.23
GAUGAGCAAUAUUACGCCUG,self-splicing fitness (ln),30 °C,-1.57 ± 0.26
same,self-splicing fitness (ln),37 °C,-2.53 ± 0.41
UUCUAGCAAUAUUACGGGGU,self-splicing fitness (ln),30 °C,-3.67 ± 0.33
same,self-splicing fitness (ln),37 °C,-1.92 ± 0.24
UCCGAGCAAUAUUACGGCCG,self-splicing fitness (ln),30 °C,-4.07 ± 0.34
CAAGAGCAAUAUUACGAUCC,self-splicing fitness (ln),30 °C,-2.49 ± 0.42
same,self-splicing fitness (ln),37 °C,-2.15 ± 0.5
